Measurements as given in doi:10.1101/462036 (bioRxiv, 2018).

Target: the molecule itself
Experiment: SEC

B1: RIG-5 IG1 (purified, hexahistidine tag) (domain or fragment)
chain: GAPPTIQQPSMSSAVALLGQDVDFTCIVNDLGSHMVAFVKADSPPRLLSFDEKVFRRRNKYELKPRIGDLHNEWVLTIKNVQESDRGNYSCQINTEPITLSTGELDVKVP
modifications: one N-linked glycan per monomer
- stoichiometry N: 2
